Results on 2 molecules are retold here after paper PMC11297931 (2024).

Broadly, the Kd is the concentration at which binding is half-saturated. The low end stands for tighter binding, the high end for weaker binding.

What all share (experiment): SPR
Experiment [1] addresses Cdk7(S164A)/Cyclin H binary complex (human, UniProt P50613 2-346; P51946 1-323, S164A, phosphothreonine at 170).
The target in experiment [2] is Cdk7(S164E)/Cyclin H binary complex (human, UniProt P50613 2-346; P51946 1-323, S164E, phosphothreonine at 170).
The target in experiment [3] is T1, doubly T-loop phosphorylated Cdk7/Cyclin H/Mat1_(230-309) ternary complex (human, UniProt P50613 2-346; P51946 1-323; P51948 230-309, phosphoserine at 164; phosphothreonine at 170 | M1 acetylated).
T1 chain 1: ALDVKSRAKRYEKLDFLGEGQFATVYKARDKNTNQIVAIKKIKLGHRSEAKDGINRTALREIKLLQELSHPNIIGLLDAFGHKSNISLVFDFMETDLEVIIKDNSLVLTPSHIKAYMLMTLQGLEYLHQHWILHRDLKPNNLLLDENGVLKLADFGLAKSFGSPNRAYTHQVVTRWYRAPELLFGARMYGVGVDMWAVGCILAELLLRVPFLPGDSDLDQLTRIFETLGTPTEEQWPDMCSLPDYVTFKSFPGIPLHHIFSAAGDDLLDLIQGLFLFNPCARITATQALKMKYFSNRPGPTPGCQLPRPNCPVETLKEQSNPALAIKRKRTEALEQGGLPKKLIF
T1 chain 2: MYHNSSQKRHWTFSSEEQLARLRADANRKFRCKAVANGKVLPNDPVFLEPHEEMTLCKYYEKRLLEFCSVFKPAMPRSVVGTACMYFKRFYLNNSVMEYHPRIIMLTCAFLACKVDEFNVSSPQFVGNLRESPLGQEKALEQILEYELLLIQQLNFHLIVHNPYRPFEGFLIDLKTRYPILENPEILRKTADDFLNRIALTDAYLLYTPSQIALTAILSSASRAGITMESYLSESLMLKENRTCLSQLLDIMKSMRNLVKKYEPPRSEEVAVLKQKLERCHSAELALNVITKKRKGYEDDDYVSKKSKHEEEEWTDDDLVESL
T1 chain 3: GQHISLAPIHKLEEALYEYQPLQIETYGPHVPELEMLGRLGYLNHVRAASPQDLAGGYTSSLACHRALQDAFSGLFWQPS

B1: MBP-Mat1_(230-309) (domain or fragment)
chain: T1 chain 3
With B1, the Kd in experiment [1] turned out to be 10.8 nM; in experiment [2], 7.3 nM.

B2: VHH_(RD7-04), form for biochemical studies (VHH)
VHH: QVQLVESGGGLVQPGGSLRLSCVASGFTFKNFYMGWVRQAPDKGLEWVATINSGGEIQSYADSVKGRFTISRDNAKNTLYLQMNNLRPEDTAVYYCSKQSSTPAKGQGTQVTVSS
In experiment [3], B2 displayed a Kd of 0.6 nM.
